US20250145673A1

Experiments:
C3b [1] = target: C3b (UniProt P01024); assay: ITC
C3b [2] = target: C3b (UniProt P01024); assay: ITC, binder titrated into target
C3b [3] = target: C3b (UniProt P01024); assay: ITC, polypeptide titrated into C3b; fit box in the lower panel
C3b [4] = target: C3b (UniProt P01024); assay: SPR, target amine-coupled to chip, single cycle kinetics, 1:1 Langmuir fit

B1: polypeptide having the amino acid sequence of SEQ ID NO: 27 (designed binder)
chain: MVKVKFEATGEEKEVDTSKIYQVYRSGKEVLFTYDDNGKTGWGYVSEKDAPKELLDMLARAEREK
Kd (C3b [1]): 2.6 nM | -TΔS (C3b [2]): 23.9 kcal/mol | Kd (C3b [2]): 2.6 nM | N (C3b [2]): 0.95 | ΔG (C3b [2]): -11.7 kcal/mol | ΔH (C3b [2]): -35.6 kcal/mol | Ka (C3b [3]): 3.88e+08 M⁻¹ | Kd (C3b [4]): 1.92 nM

B2: polypeptide comprising the amino acid sequence of SEQ ID NO: 33 (designed binder)
chain: MVKVKFAATGEEKEVETSKIANVYRVGKDVLFSYDDQGKIGWGYVSEKDAPKELLDLLARAEREK
Kd (C3b [1]): 1.3 nM | -TΔS (C3b [2]): 6.5 kcal/mol | Kd (C3b [2]): 1.3 nM | N (C3b [2]): 0.9 | ΔG (C3b [2]): -12.1 kcal/mol | ΔH (C3b [2]): -18.6 kcal/mol | Ka (C3b [3]): 7.95e+08 M⁻¹ | Kd (C3b [4]): 0.16 nM

B3: polypeptide comprising the amino acid sequence of SEQ ID NO: 34 (designed binder)
chain: MVKVKFDATGEEKEVETSKISAVYRTGKDVLFSYDDQGKIGWGYVSEKDAPKELLDLLARAEREK
Kd (C3b [1]): 0.7 nM | -TΔS (C3b [2]): 14.7 kcal/mol | Kd (C3b [2]): 0.7 nM | N (C3b [2]): 0.89 | ΔG (C3b [2]): -12.5 kcal/mol | ΔH (C3b [2]): -27.2 kcal/mol | Ka (C3b [3]): 1.4e+09 M⁻¹ | Kd (C3b [4]): 0.42 nM
